Data as given in the supplement of paper PMC6755084.

B1: F1*; the commonest letter at each place (parent)
chain: GAGACCGCAACTGAAAAGTTGTTATCACTTGTCGTAAGACACTTTGGATGGGTTGAAGTTCTGCACGTAGAAGCAAAAGGC

Variants of: B1
Experiment: fraction ligated after 30 min (ligated reads / total reads); higher = more ligase activity
Conditions: with F1*sub RNA substrate (template-directed ligation), 42 °C
Procedure, shortened: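 Oligo-pool templates underwent PCR amplification, T7 transcription and gel purification to yield ribozyme variants. Gel-separated ligated and unligated bands were converted to complementary DNA with barcoded primers and sequenced on a MiSeq, keeping core bases of quality ≥20. The ratio of ligated reads to total reads gave the fraction ligated for every variant.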

Variant	fraction ligated
C28T A41T	0.806
C28T A41C	0.792
C28T A41G	0.789
C28T G50T	0.747
C28T G50C	0.323
C28T G50A	0.352
C28T A36G	0.81
C28T A36C	0.801
C28T A36T	0.799
C28T G55C	0.221
C28T G55A	0.801
C28T G55T	0.765
C28T G47A	0.787
C28T G47C	0.252
C28T G47T	0.3
C28G A41T	0.801
C28G A41C	0.751
C28G A41G	0.744
C28G G38T	0.772
C28G G38C	0.778
C28G G38A	0.792
C28A A39G	0.798
C28A A39T	0.794
C28A A39C	0.802

Variant	fraction ligated
A27T	0.8
A27T A56G	0.791
A27T A56C	0.787
A27T A56T	0.792
A27T T30G	0.84
A27T T30A	0.775
A27T T30C	0.804
A27T T32G	0.838
A27T T32A	0.874
A27T T32C	0.755
A27G T45G	0.217
A27G T45A	0.694
A27G T45C	0.357
C28G C42T	0.815
C28G C42A	0.824
C28G C42G	0.851
C28T G46C	0.8
C28T G46A	0.802
C28T G46T	0.788
C28G C33G	0.505
C28G C33A	0.757
C28G C33T	0.786
A27T G31T	0.862
A27T G31A	0.848

Variant	fraction ligated
A27T G31C	0.864
C28G T43A	0.807
C28G T43C	0.798
C28G T43G	0.794
C28T C40A	0.824
C28T C40G	0.81
C28T C40T	0.796
C28A T32C	0.756
C28A T32A	0.836
C28A T32G	0.812
A27T A41T	0.779
A27T A41C	0.766
A27T A41G	0.776
A27T C40T	0.847
A27T C40A	0.856
A27T C40G	0.807
C28A T49C	0.605
C28A T49A	0.679
C28A T49G	0.724
C28T A37T	0.81
C28T A37G	0.8
C28T A37C	0.799
C28G A57G	0.791
C28G A57T	0.79

Variant	fraction ligated
C28G A57C	0.77
C28A A37G	0.793
C28A A37T	0.801
C28A A37C	0.779
C28G A39T	0.755
C28G A39C	0.759
C28G A39G	0.772
A27G T29A	0.829
A27G T29G	0.806
A27G T29C	0.788
C28G G47A	0.763
C28G G47T	0.591
C28G G47C	0.484
C28A G55C	0.19
C28A G55T	0.8
C28A G55A	0.793
C28A G47T	0.361
C28A G47A	0.75
C28A G47C	0.302
A27T G47T	0.0847
A27T G47A	0.801
A27T G47C	0.0127
T29A A36C	0.855
T29A A36G	0.853

Variant	fraction ligated
C28A T30G	0.808
C28A T30C	0.804
C28A T30A	0.8
A27T A39G	0.84
A27T A39C	0.782
A27T A39T	0.783
C28T T35A	0.802
C28T T35G	0.785
C28T T35C	0.789
A27T C28T	0.798
A27T C28G	0.802
A27T C28A	0.829
C28T G31A	0.81
C28T G31C	0.828
C28T G31T	0.826
A27T G34C	0.795
A27T G34A	0.806
A27T G34T	0.771
C28A G50A	0.154
C28A G50T	0.517
C28A G50C	0.163
C28A C33T	0.829
C28A C33G	0.813
C28A C33A	0.818

Variant	fraction ligated
C28A T44C	0.802
C28A T44A	0.834
C28A T44G	0.798
A27G T44G	0.813
A27G T44C	0.81
A27G T44A	0.812
A27T A48T	0.787
A27T A48G	0.794
A27T A48C	0.729
A27T A36T	0.798
A27T A36G	0.862
A27T A36C	0.868
A27T T45A	0.783
A27T T45C	0.762
A27T T45G	0.16
C28T G34C	0.79
C28T G34A	0.814
C28T G34T	0.802
C28G G34A	0.794
C28G G34T	0.798
C28G G34C	0.768
C28A C42G	0.81
C28A C42A	0.803
C28A C42T	0.823

Variant	fraction ligated
C28G T49A	0.656
C28G T49G	0.763
C28G T49C	0.674
C28T T29G	0.825
C28T T29A	0.823
C28T T29C	0.789
C28G A37T	0.808
C28G A37C	0.766
C28G A37G	0.809
C28A T45C	0.499
C28A T45A	0.698
C28A T45G	0.0334
C28G C40A	0.791
C28G C40T	0.806
C28G C40G	0.812
C28T T30C	0.805
C28T T30G	0.791
C28T T30A	0.814
C28A A57G	0.8
C28A A57C	0.776
C28A A57T	0.789
A27T G50A	0.412
A27T G50C	0.238
A27T G50T	0.616

Variant	fraction ligated
C28G A56T	0.767
C28G A56C	0.7
C28G A56G	0.722
C28G T30C	0.794
C28G T30G	0.788
C28G T30A	0.802
C28G G55A	0.779
C28G G55T	0.763
C28G G55C	0.28
C28A A48G	0.784
C28A A48C	0.477
C28A A48T	0.424
C28T T49G	0.811
C28T T49A	0.743
C28T T49C	0.749
C28T G38A	0.811
C28T G38C	0.799
C28T G38T	0.795
C28A C40G	0.824
C28A C40A	0.809
C28A C40T	0.773
A27T G38A	0.811
A27T G38C	0.784
A27T G38T	0.799

Variant	fraction ligated
A27G T32C	0.77
A27G T32G	0.827
A27G T32A	0.795
C28T T44G	0.813
C28T T44A	0.816
C28T T44C	0.783
C28T A39C	0.795
C28T A39T	0.796
C28T A39G	0.796
C28T	0.812
C28A	0.809
C28G	0.797
C28A G34A	0.812
C28A G34C	0.779
C28A G34T	0.808
A27T C42T	0.822
A27T C42G	0.819
A27T C42A	0.809
C28T A48C	0.606
C28T A48G	0.788
C28T A48T	0.709
C28G A48G	0.751
C28G A48T	0.47
C28G A48C	0.405

Variant	fraction ligated
C28T A57T	0.817
C28T A57G	0.798
C28T A57C	0.744
C28T C33G	0.809
C28T C33T	0.822
C28T C33A	0.816
C28T A56G	0.567
C28T A56T	0.731
C28T A56C	0.595
A27T T29C	0.807
A27T T29A	0.803
A27T T29G	0.805
A27T A57C	0.775
A27T A57T	0.804
A27T A57G	0.794
A27T T43G	0.784
A27T T43C	0.761
A27T T43A	0.799
C28G G31C	0.81
C28G G31T	0.833
C28G G31A	0.799
C28A G46T	0.803
C28A G46C	0.79
C28A G46A	0.829

Variant	fraction ligated
C28T T43G	0.8
C28T T43A	0.803
C28T T43C	0.781
A27G T35C	0.812
A27G T35A	0.847
A27G T35G	0.839
A27T T49A	0.76
A27T T49G	0.287
A27T T49C	0.512
C28A A36C	0.806
C28A A36T	0.811
C28A A36G	0.795
A27G T30C	0.811
A27G T30G	0.846
A27G T30A	0.839
C28A A56T	0.784
C28A A56C	0.718
C28A A56G	0.681
C28A A41G	0.779
C28A A41C	0.794
C28A A41T	0.827
C28A T29A	0.798
C28A T29G	0.814
C28A T29C	0.828

Variant	fraction ligated
A27T G55T	0.789
A27T G55A	0.812
A27T G55C	0.749
A27T C33A	0.84
A27T C33T	0.867
A27T C33G	0.838
C28A T43C	0.795
C28A T43G	0.812
C28A T43A	0.799
C28A G38A	0.789
C28A G38T	0.799
C28A G38C	0.814
A27G T43G	0.796
A27G T43A	0.829
A27G T43C	0.806
A27T G46C	0.796
A27T G46A	0.817
A27T G46T	0.757
C28T T45G	0.0616
C28T T45C	0.284
C28T T45A	0.532
C28G T45A	0.558
C28G T45G	0.259
C28G T45C	0.337

Variant	fraction ligated
C28G A36T	0.788
C28G A36C	0.759
C28G A36G	0.812
A27T A37T	0.808
A27T A37C	0.818
A27T A37G	0.846
A27G T49C	0.601
A27G T49A	0.721
A27G T49G	0.774
C28A G31C	0.831
C28A G31A	0.84
C28A G31T	0.826
C28G G50A	0.224
C28G G50T	0.594
C28G G50C	0.19
C28T C42G	0.813
C28T C42A	0.805
C28T C42T	0.819
A27T T44G	0.846
A27T T44A	0.825
A27T T44C	0.775
C28T T32C	0.753
C28T T32A	0.822
C28T T32G	0.8

Variant	fraction ligated
C28G T29C	0.814
C28G T29A	0.803
C28G T29G	0.789
C28G G46C	0.792
C28G G46T	0.771
C28G G46A	0.811
C28A T35C	0.807
C28A T35A	0.792
C28A T35G	0.812
C28G T32C	0.723
C28G T32A	0.795
C28G T32G	0.783
C28G T35A	0.814
C28G T35C	0.802
C28G T35G	0.759
C28G T44G	0.778
C28G T44C	0.778
C28G T44A	0.791
T29A	0.848
A27T T35G	0.804
A27T T35C	0.811
A27T T35A	0.804
